Measured values published in paper PMC7221254.

Assays:
[1] = target: T1, PrfA L140F (Listeria monocytogenes, UniProt P22262 1-237, L140F); experiment: crystal structure; PDB probably one of 6QWF/6QWH/6QWK/6QWM; assignment not in material; conditions: protein: recombinant; tags: His6 removed by TEV, leaves N-terminal GA; chain copies: 2; blunt
[2] = target: T2, PrfA L140H (Listeria monocytogenes, UniProt P22262 1-237, L140H); experiment: as above; conditions: protein: recombinant; tags: His6 removed by TEV, leaves N-terminal GA; chain copies: 2; blunt
[3] = target: T3, PrfA A218G (Listeria monocytogenes, UniProt P22262 1-237, A218G); experiment: as above; conditions: protein: recombinant; tags: His6 removed by TEV, leaves N-terminal GA; chain copies: 2; blunt
[4] = target: T1, PrfA L140F; experiment: SPR; conditions: protein: recombinant; tags: His6 removed by TEV, leaves N-terminal GA; chain copies: 2; label: 5'-biotin on strand 1; blunt
[5] = target: T2, PrfA L140H; experiment: SPR; conditions: protein: recombinant; tags: His6 removed by TEV, leaves N-terminal GA; chain copies: 2; label: 5'-biotin on strand 1; blunt
[6] = target: T3, PrfA A218G; experiment: SPR; conditions: protein: recombinant; tags: His6 removed by TEV, leaves N-terminal GA; chain copies: 2; label: 5'-biotin on strand 1; blunt
[7] = target: PrfA WT (Listeria monocytogenes, UniProt P22262 1-237); experiment: SPR; conditions: protein: recombinant; tags: His6-TEV vector pET His1a; chain copies: 2; label: 5'-biotin on strand 1; blunt

| Binder | binding result [1] | binding result [2] | binding result [3] | Kd [4] | Kd [5] | Kd [6] | Kd [7] |
| --- | --- | --- | --- | --- | --- | --- | --- |
| hly PrfA box 30 bp (dsDNA) DNA 1: TTGAGGCATTAACATTTGTTAACGACGATA DNA 2: TATCGTCGTTAACAAATGTTAATGCCTCAA | binds | binds | binds | – | – | – | – |
| hly promoter 40 bp (dsDNA) DNA 1: CTTTTATGTTGAGGCATTAACATTTGTTAACGACGATAAA DNA 2: TTTATCGTCGTTAACAAATGTTAATGCCTCAACATAAAAG | – | – | – | 15 nM | 10 nM | 4 nM | 110 nM |
| actA promoter 40 bp (dsDNA) DNA 1: AGTTGGGGTTAACTGATTAACAAATGTTAGAGAAAAATTA DNA 2: TAATTTTTCTCTAACATTTGTTAATCAGTTAACCCCAACT | – | – | – | 95 nM | 85 nM | 27 nM | 690 nM |
| hpt promoter 40 bp (dsDNA) DNA 1: TTTTGTTTTCTGCATGATAACAAGTGTTAATGACGGAAAG DNA 2: CTTTCCGTCATTAACACTTGTTATCATGCAGAAAACAAAA | – | – | – | 270 nM | 210 nM | 55 nM | 1040 nM |
